{"source": "patent US20250012721A1", "about": "(JIANGSU UNIVERSITY, published 2025)", "binders": {"B1": {"name": "C1s recombinant antibody (antibody, human IgG4 S228P, kappa, V domains shown)", "VH": "EVQLVESGGGLVKPGGSLRLSCAASGFTFSNYAMSWVRQAPGKGLEWVATISSGGSHTYYLDSVKGRFTISRDNSKNTLYLQMNSLRAEDTALYYCARLFTGYAMDYWGQGTLVTVSS", "VL": "QIVLTQSPATLSLSPGERATMSCTASSSVSSSYLHWYQQKPGKAPKLWIYSTSNLASGVPSRFSGSGSGTDYTLTISSLQPEDFATYYCHQYYRLPPITFGQGTKLEIKR", "notes": "The summary and claim 1 call the same entries variable regions; Expressed in HEK293T; also called C1s-specific recombinant antibody; recombinant anti-C1s antibody"}}, "key": {"C1r protein": {"molecular_target": "T1, C1r protein (UniProt P00736 18-705)", "T1 construct": "also called Cir protein", "T1 sequence (looked up)": "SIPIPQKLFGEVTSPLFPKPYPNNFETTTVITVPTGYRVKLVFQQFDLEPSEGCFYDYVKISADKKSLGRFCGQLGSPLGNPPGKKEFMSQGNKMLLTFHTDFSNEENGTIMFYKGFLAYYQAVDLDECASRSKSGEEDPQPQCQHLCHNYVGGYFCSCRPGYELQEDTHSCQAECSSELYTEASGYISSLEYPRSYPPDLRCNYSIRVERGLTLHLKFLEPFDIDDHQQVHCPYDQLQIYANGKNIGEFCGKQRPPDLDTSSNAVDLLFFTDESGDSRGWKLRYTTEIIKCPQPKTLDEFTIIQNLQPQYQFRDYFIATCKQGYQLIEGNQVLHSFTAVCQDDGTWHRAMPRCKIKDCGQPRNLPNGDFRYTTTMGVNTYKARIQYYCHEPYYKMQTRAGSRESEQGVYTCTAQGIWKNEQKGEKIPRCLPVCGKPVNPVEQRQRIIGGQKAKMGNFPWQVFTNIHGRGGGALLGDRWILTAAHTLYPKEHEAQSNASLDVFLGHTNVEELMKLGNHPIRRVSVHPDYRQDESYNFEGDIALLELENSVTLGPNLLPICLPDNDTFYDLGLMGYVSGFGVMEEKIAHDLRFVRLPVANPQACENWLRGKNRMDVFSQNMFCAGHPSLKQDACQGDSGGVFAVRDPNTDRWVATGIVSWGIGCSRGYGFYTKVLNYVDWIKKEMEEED", "assay": "indirect ELISA, antigen coated at 1 µg/ml, Goat anti-Human IgG-HRP detection, OD 450 nm", "method": "In this example, the antigen-binding specificity of the C1s recombinant antibody was analyzed by an indirect ELISA method according to the principle of the specificity detection of the C1s recombinant antibody shown in FIG. 4. An analysis method included the following steps:\n200 μL (1 μg/ml) of C1s antigen (single-stranded unactivated C1s protein, double-stranded activated C1s protein, or C1r protein) was added respectively to wells of a microtiter plate, and the microtiter plate was gently shaken to make the antigen cover a well bottom of the microtiter plate. Incubation was performed overnight at 4° C. After washing the plate 3 times with a warm PBS, 200 μL of a blocking solution (10 mM PBS, 1% BSA, 0.1% casein) was added to perform blocking. Incubation was next performed at 37° C. for 1 h. The plate was washed 5 times with PBS. 100 μL of the C1s recombinant antibody was added in each well (an initial concentration of a first well was 10 μg/mL, then diluted down to 7 wells according to a ratio of ¼ gradient to set up duplicate wells), incubation was performed at 37° C. for 1 h. The liquid in the microtiter plate was spin-dried, and the plate was washed with 200 μL of warm PBS 5 times. 100 μL of a diluted secondary antibody (Goat anti-Human IgG-HRP) was added to each well of the microtiter plate. […] An optical density (OD) was read at 450 nm on the microplate reader."}, "double-stranded C1r": {"molecular_target": "T2, double-stranded C1r (UniProt P00736 18-705)", "T2 sequence (looked up)": "T1 sequence (looked up)", "assay": "cell-based or functional assay"}, "MASP1": {"molecular_target": "T3, MASP1 (UniProt P48740 20-699, limits assumed)", "T3 sequence (looked up)": "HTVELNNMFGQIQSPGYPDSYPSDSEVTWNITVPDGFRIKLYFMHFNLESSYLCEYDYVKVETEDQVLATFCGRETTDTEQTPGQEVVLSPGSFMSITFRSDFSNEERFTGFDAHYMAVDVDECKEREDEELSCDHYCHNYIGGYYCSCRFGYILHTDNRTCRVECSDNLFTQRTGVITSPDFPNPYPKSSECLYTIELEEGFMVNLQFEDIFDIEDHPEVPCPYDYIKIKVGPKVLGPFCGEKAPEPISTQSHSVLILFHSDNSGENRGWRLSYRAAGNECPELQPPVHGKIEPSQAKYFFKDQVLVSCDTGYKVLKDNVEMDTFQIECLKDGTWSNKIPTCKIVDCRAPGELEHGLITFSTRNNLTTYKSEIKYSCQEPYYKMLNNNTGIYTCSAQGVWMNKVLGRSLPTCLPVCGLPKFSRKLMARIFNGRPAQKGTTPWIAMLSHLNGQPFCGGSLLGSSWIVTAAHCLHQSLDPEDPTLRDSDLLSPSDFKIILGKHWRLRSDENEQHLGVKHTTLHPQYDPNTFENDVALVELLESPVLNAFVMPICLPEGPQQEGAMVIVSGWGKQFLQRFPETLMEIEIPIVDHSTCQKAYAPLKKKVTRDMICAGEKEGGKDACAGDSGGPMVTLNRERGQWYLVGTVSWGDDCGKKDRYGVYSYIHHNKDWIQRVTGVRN", "assay": "cell-based or functional assay"}, "MASP2": {"molecular_target": "MASP2 (UniProt O00187 16-686, limits assumed)", "sequence (O00187 16-686 limits assumed)": "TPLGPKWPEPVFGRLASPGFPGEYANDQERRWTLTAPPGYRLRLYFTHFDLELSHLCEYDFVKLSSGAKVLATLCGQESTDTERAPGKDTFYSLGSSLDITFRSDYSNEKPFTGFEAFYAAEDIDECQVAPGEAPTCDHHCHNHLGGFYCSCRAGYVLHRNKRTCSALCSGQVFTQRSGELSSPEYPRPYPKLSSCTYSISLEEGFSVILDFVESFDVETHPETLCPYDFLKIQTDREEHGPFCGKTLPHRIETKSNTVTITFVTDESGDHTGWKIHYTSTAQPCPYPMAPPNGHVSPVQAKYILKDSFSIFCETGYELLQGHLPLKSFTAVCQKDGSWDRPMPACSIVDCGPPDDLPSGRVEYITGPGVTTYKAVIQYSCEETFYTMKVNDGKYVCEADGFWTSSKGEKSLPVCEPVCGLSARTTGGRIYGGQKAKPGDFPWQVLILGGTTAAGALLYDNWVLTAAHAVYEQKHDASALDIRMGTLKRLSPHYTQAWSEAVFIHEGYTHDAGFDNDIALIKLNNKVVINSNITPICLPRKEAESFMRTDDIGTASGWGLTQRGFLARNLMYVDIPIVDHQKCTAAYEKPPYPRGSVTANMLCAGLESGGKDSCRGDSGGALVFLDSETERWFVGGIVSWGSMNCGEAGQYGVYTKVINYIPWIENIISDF", "assay": "cell-based or functional assay"}}, "note": "“And” between values parts separate entries of the source, which are not always exact repeats. Identical values can stand only once."}
{"binder": "B1", "values": [{"measurement": "binding result", "setting": "C1r protein", "result": "no binding"}, {"measurement": "Cross reaction rate (%)", "setting": "double-stranded C1r", "result": 0.15, "unit": "%"}, {"measurement": "Measured concentration", "setting": "double-stranded C1r", "result": "0.91 pmol/min/µg and 1 µg/mL"}, {"measurement": "Cross reaction rate (%)", "setting": "MASP1", "result": 0.04, "unit": "%"}, {"measurement": "Measured concentration", "setting": "MASP1", "result": "1.82 pmol/min/µg and 2 µg/mL"}, {"measurement": "Cross reaction rate (%)", "setting": "MASP2", "result": 0.04, "unit": "%"}, {"measurement": "Measured concentration", "setting": "MASP2", "result": "1.64 pmol/min/µg and 1.8 µg/mL"}]}
